Assay [1] concerns the target human glucagon-like peptide-1 receptor (human, UniProt P43220). The experiment in a line: cell-based or functional assay.
For assay [2], the target named is T1, human glucose-dependent insulinotropic peptide receptor (human, UniProt P48546).
T1 sequence: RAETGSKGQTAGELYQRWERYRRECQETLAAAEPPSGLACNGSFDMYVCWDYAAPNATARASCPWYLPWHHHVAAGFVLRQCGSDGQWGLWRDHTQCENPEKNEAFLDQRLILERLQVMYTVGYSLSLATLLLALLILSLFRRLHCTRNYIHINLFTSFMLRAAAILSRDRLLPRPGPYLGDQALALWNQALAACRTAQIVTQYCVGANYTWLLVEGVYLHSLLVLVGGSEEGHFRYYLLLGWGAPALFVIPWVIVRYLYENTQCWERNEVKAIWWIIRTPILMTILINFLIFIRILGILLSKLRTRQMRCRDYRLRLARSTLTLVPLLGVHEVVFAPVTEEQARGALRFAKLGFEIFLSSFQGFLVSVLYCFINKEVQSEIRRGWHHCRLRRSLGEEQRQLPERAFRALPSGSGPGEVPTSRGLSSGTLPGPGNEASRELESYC
Kind of assay: cell-based or functional assay.

Square brackets hold non-standard residues; d marks the D form. Ends that are not written are not given here. Aib = CC(C)(N)C(=O)O

B1: Compound No. 11 (peptide)
peptide: Y[Aib]EGTFTSDYSIYLEKEAQKEFVNWLLAGGPSSGAPPPSK-NH2
modifications: N-terminus assumed
SMILES: CC[C@H](C)[C@H](NC(=O)[C@H](CO)NC(=O)[C@H](Cc1ccc(O)cc1)NC(=O)[C@H](CC(=O)O)NC(=O)[C@H](CO)NC(=O)[C@@H](NC(=O)[C@H](Cc1ccccc1)NC(=O)[C@@H](NC(=O)CNC(=O)[C@H](CCC(=O)O)NC(=O)C(C)(C)NC(=O)[C@@H](N)Cc1ccc(O)cc1)[C@@H](C)O)[C@@H](C)O)C(=O)N[C@@H](Cc1ccc(O)cc1)C(=O)N[C@@H](CC(C)C)C(=O)N[C@@H](CCC(=O)O)C(=O)N[C@@H](CCCCN)C(=O)N[C@@H](CCC(=O)O)C(=O)N[C@@H](C)C(=O)N[C@@H](CCC(N)=O)C(=O)N[C@@H](CCCCN)C(=O)N[C@@H](CCC(=O)O)C(=O)N[C@@H](Cc1ccccc1)C(=O)N[C@H](C(=O)N[C@@H](CC(N)=O)C(=O)N[C@@H](Cc1c[nH]c2ccccc12)C(=O)N[C@@H](CC(C)C)C(=O)N[C@@H](CC(C)C)C(=O)N[C@@H](C)C(=O)NCC(=O)NCC(=O)N1CCC[C@H]1C(=O)N[C@@H](CO)C(=O)N[C@@H](CO)C(=O)NCC(=O)N[C@@H](C)C(=O)N1CCC[C@H]1C(=O)N1CCC[C@H]1C(=O)N1CCC[C@H]1C(=O)N[C@@H](CO)C(=O)N[C@@H](CCCCN)C(N)=O)C(C)C
With B1, the “Activity for human GLP-1R (EC50 nM), cAMP HTRF” value (“Activity for human GLP-1R” below) in assay [1] was 0.08 nM. The “Activity for human GIPR (EC50 nM), cAMP HTRF” value (“Activity for human GIPR” for short) in assay [2] is 0.014 nM.

B2: Compound No. 12 (peptide)
peptide: Y[Aib]EGTFTSDYSIYLE[Aib]EAAKEFVNWLLAGGPSSGAPPPSK-NH2
modifications: N-terminus assumed
SMILES: CC[C@H](C)[C@H](NC(=O)[C@H](CO)NC(=O)[C@H](Cc1ccc(O)cc1)NC(=O)[C@H](CC(=O)O)NC(=O)[C@H](CO)NC(=O)[C@@H](NC(=O)[C@H](Cc1ccccc1)NC(=O)[C@@H](NC(=O)CNC(=O)[C@H](CCC(=O)O)NC(=O)C(C)(C)NC(=O)[C@@H](N)Cc1ccc(O)cc1)[C@@H](C)O)[C@@H](C)O)C(=O)N[C@@H](Cc1ccc(O)cc1)C(=O)N[C@@H](CC(C)C)C(=O)N[C@@H](CCC(=O)O)C(=O)NC(C)(C)C(=O)N[C@@H](CCC(=O)O)C(=O)N[C@@H](C)C(=O)N[C@@H](C)C(=O)N[C@@H](CCCCN)C(=O)N[C@@H](CCC(=O)O)C(=O)N[C@@H](Cc1ccccc1)C(=O)N[C@H](C(=O)N[C@@H](CC(N)=O)C(=O)N[C@@H](Cc1c[nH]c2ccccc12)C(=O)N[C@@H](CC(C)C)C(=O)N[C@@H](CC(C)C)C(=O)N[C@@H](C)C(=O)NCC(=O)NCC(=O)N1CCC[C@H]1C(=O)N[C@@H](CO)C(=O)N[C@@H](CO)C(=O)NCC(=O)N[C@@H](C)C(=O)N1CCC[C@H]1C(=O)N1CCC[C@H]1C(=O)N1CCC[C@H]1C(=O)N[C@@H](CO)C(=O)N[C@@H](CCCCN)C(N)=O)C(C)C
Take B2: the “Activity for human GLP-1R” value in assay [1] was 0.013 nM. Also, the “Activity for human GIPR” value in assay [2] was 0.081 nM.

B3: Compound No. 13 (peptide)
peptide: Y[Aib]EGTFTSDYSIYLEKIAAKEFVNWLLAGGPSSGAPPPSK-NH2
modifications: N-terminus assumed
SMILES: CC[C@H](C)[C@H](NC(=O)[C@H](CCCCN)NC(=O)[C@H](CCC(=O)O)NC(=O)[C@H](CC(C)C)NC(=O)[C@H](Cc1ccc(O)cc1)NC(=O)[C@@H](NC(=O)[C@H](CO)NC(=O)[C@H](Cc1ccc(O)cc1)NC(=O)[C@H](CC(=O)O)NC(=O)[C@H](CO)NC(=O)[C@@H](NC(=O)[C@H](Cc1ccccc1)NC(=O)[C@@H](NC(=O)CNC(=O)[C@H](CCC(=O)O)NC(=O)C(C)(C)NC(=O)[C@@H](N)Cc1ccc(O)cc1)[C@@H](C)O)[C@@H](C)O)[C@@H](C)CC)C(=O)N[C@@H](C)C(=O)N[C@@H](C)C(=O)N[C@@H](CCCCN)C(=O)N[C@@H](CCC(=O)O)C(=O)N[C@@H](Cc1ccccc1)C(=O)N[C@H](C(=O)N[C@@H](CC(N)=O)C(=O)N[C@@H](Cc1c[nH]c2ccccc12)C(=O)N[C@@H](CC(C)C)C(=O)N[C@@H](CC(C)C)C(=O)N[C@@H](C)C(=O)NCC(=O)NCC(=O)N1CCC[C@H]1C(=O)N[C@@H](CO)C(=O)N[C@@H](CO)C(=O)NCC(=O)N[C@@H](C)C(=O)N1CCC[C@H]1C(=O)N1CCC[C@H]1C(=O)N1CCC[C@H]1C(=O)N[C@@H](CO)C(=O)N[C@@H](CCCCN)C(N)=O)C(C)C
B3: the “Activity for human GLP-1R” value in assay [1] was 0.013 nM. For the same molecule, the “Activity for human GIPR” value in assay [2] worked out at 0.017 nM.

B4: Compound No. 14 (peptide)
peptide: Y[Aib]EGTFTSDYSIYLEKIAAQEFVNWLLAGGPSSGAPPPSK-NH2
modifications: N-terminus assumed
SMILES: CC[C@H](C)[C@H](NC(=O)[C@H](CCCCN)NC(=O)[C@H](CCC(=O)O)NC(=O)[C@H](CC(C)C)NC(=O)[C@H](Cc1ccc(O)cc1)NC(=O)[C@@H](NC(=O)[C@H](CO)NC(=O)[C@H](Cc1ccc(O)cc1)NC(=O)[C@H](CC(=O)O)NC(=O)[C@H](CO)NC(=O)[C@@H](NC(=O)[C@H](Cc1ccccc1)NC(=O)[C@@H](NC(=O)CNC(=O)[C@H](CCC(=O)O)NC(=O)C(C)(C)NC(=O)[C@@H](N)Cc1ccc(O)cc1)[C@@H](C)O)[C@@H](C)O)[C@@H](C)CC)C(=O)N[C@@H](C)C(=O)N[C@@H](C)C(=O)N[C@@H](CCC(N)=O)C(=O)N[C@@H](CCC(=O)O)C(=O)N[C@@H](Cc1ccccc1)C(=O)N[C@H](C(=O)N[C@@H](CC(N)=O)C(=O)N[C@@H](Cc1c[nH]c2ccccc12)C(=O)N[C@@H](CC(C)C)C(=O)N[C@@H](CC(C)C)C(=O)N[C@@H](C)C(=O)NCC(=O)NCC(=O)N1CCC[C@H]1C(=O)N[C@@H](CO)C(=O)N[C@@H](CO)C(=O)NCC(=O)N[C@@H](C)C(=O)N1CCC[C@H]1C(=O)N1CCC[C@H]1C(=O)N1CCC[C@H]1C(=O)N[C@@H](CO)C(=O)N[C@@H](CCCCN)C(N)=O)C(C)C
In the case of B4, in assay [1], the “Activity for human GLP-1R” value came out at 0.008 nM. In addition, in assay [2], the “Activity for human GIPR” value stood at 0.006 nM.

B5: Compound No. 15 (peptide)
peptide: Y[Aib]EGTFTSDYSIYLEKIAQKEFVNWLLAGGPSSGAPPPSK-NH2
modifications: N-terminus assumed
SMILES: CC[C@H](C)[C@H](NC(=O)[C@H](CCCCN)NC(=O)[C@H](CCC(=O)O)NC(=O)[C@H](CC(C)C)NC(=O)[C@H](Cc1ccc(O)cc1)NC(=O)[C@@H](NC(=O)[C@H](CO)NC(=O)[C@H](Cc1ccc(O)cc1)NC(=O)[C@H](CC(=O)O)NC(=O)[C@H](CO)NC(=O)[C@@H](NC(=O)[C@H](Cc1ccccc1)NC(=O)[C@@H](NC(=O)CNC(=O)[C@H](CCC(=O)O)NC(=O)C(C)(C)NC(=O)[C@@H](N)Cc1ccc(O)cc1)[C@@H](C)O)[C@@H](C)O)[C@@H](C)CC)C(=O)N[C@@H](C)C(=O)N[C@@H](CCC(N)=O)C(=O)N[C@@H](CCCCN)C(=O)N[C@@H](CCC(=O)O)C(=O)N[C@@H](Cc1ccccc1)C(=O)N[C@H](C(=O)N[C@@H](CC(N)=O)C(=O)N[C@@H](Cc1c[nH]c2ccccc12)C(=O)N[C@@H](CC(C)C)C(=O)N[C@@H](CC(C)C)C(=O)N[C@@H](C)C(=O)NCC(=O)NCC(=O)N1CCC[C@H]1C(=O)N[C@@H](CO)C(=O)N[C@@H](CO)C(=O)NCC(=O)N[C@@H](C)C(=O)N1CCC[C@H]1C(=O)N1CCC[C@H]1C(=O)N1CCC[C@H]1C(=O)N[C@@H](CO)C(=O)N[C@@H](CCCCN)C(N)=O)C(C)C
Regarding B5, in assay [1], the “Activity for human GLP-1R” value stood at 0.015 nM. Besides, the “Activity for human GIPR” value in assay [2] stood at 0.009 nM.

B6: Compound No. 10 (peptide)
peptide: Y[Aib]EGTFTSDYSIYLEKEAAQEFVNWLLAGGPSSGAPPPSK-NH2
modifications: N-terminus assumed
SMILES: CC[C@H](C)[C@H](NC(=O)[C@H](CO)NC(=O)[C@H](Cc1ccc(O)cc1)NC(=O)[C@H](CC(=O)O)NC(=O)[C@H](CO)NC(=O)[C@@H](NC(=O)[C@H](Cc1ccccc1)NC(=O)[C@@H](NC(=O)CNC(=O)[C@H](CCC(=O)O)NC(=O)C(C)(C)NC(=O)[C@@H](N)Cc1ccc(O)cc1)[C@@H](C)O)[C@@H](C)O)C(=O)N[C@@H](Cc1ccc(O)cc1)C(=O)N[C@@H](CC(C)C)C(=O)N[C@@H](CCC(=O)O)C(=O)N[C@@H](CCCCN)C(=O)N[C@@H](CCC(=O)O)C(=O)N[C@@H](C)C(=O)N[C@@H](C)C(=O)N[C@@H](CCC(N)=O)C(=O)N[C@@H](CCC(=O)O)C(=O)N[C@@H](Cc1ccccc1)C(=O)N[C@H](C(=O)N[C@@H](CC(N)=O)C(=O)N[C@@H](Cc1c[nH]c2ccccc12)C(=O)N[C@@H](CC(C)C)C(=O)N[C@@H](CC(C)C)C(=O)N[C@@H](C)C(=O)NCC(=O)NCC(=O)N1CCC[C@H]1C(=O)N[C@@H](CO)C(=O)N[C@@H](CO)C(=O)NCC(=O)N[C@@H](C)C(=O)N1CCC[C@H]1C(=O)N1CCC[C@H]1C(=O)N1CCC[C@H]1C(=O)N[C@@H](CO)C(=O)N[C@@H](CCCCN)C(N)=O)C(C)C
With B6, the “Activity for human GLP-1R” value in assay [1] is 0.097 nM. Moreover, the “Activity for human GIPR” value in assay [2] turned out to be 0.006 nM.
